# Measurements published in the supplement of paper PMC9112550, “Optimization of the antimicrobial peptide Bac7 by deep mutational scanning” (BMC Biology, 2022).
# System: Escherichia coli TOP10
# Assay: shrunken log2 fold change of peptide-encoding DNA abundance (4.5 h post-induction vs induction); higher = less antimicrobial activity (less host growth inhibition)
# Settings: time post-induction: 4.5 h; library: site-saturation at positions 5, 18, 19, 20
# 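Note: peptides expressed intracellularly from a pBAD plasmid library in pooled LB shake-flask culture, induced with 0.3% L-arabinose, DNA abundance read by NGS, three biological replicates, DESeq2 with apeglm shrinkage.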
row,Sequence,shrunken log2 fold change
1,RRIRCRPPRLPRPRPRPNKEPRP,-0.189
2,RRIRSRPPRLPRPRPRPDGGPRP,-0.125
3,RRIRNRPPRLPRPRPRPFVFPRP,-0.0679
4,RRIRWRPPRLPRPRPRPHIEPRP,0.0376
5,RRIRPRPPRLPRPRPRPHSGPRP,-0.169
6,RRIRNRPPRLPRPRPRPTSMPRP,0.0812
7,RRIRPRPPRLPRPRPRPFCLPRP,-0.0969
8,RRIRERPPRLPRPRPRPCDAPRP,-0.171
9,RRIRYRPPRLPRPRPRPGPSPRP,-0.125
10,RRIRVRPPRLPRPRPRPLSTPRP,-0.0699
11,RRIRFRPPRLPRPRPRPCNKPRP,-0.249
12,RRIRRRPPRLPRPRPRPLLFPRP,0.278
13,RRIRIRPPRLPRPRPRPDTKPRP,-0.188
14,RRIRERPPRLPRPRPRPPYKPRP,-0.107
15,RRIRIRPPRLPRPRPRPTHGPRP,0.0479
16,RRIRCRPPRLPRPRPRPICEPRP,-0.178
17,RRIRHRPPRLPRPRPRPNEQPRP,-0.0176
18,RRIRVRPPRLPRPRPRPRAEPRP,0.677
19,RRIRCRPPRLPRPRPRPEPVPRP,0.0937
20,RRIRGRPPRLPRPRPRPVHIPRP,-0.165
21,RRIRLRPPRLPRPRPRPARAPRP,0.268
22,RRIRGRPPRLPRPRPRPDNKPRP,-0.169
23,RRIRIRPPRLPRPRPRPQPDPRP,-0.483
24,RRIRERPPRLPRPRPRPSKDPRP,-0.664
25,RRIRCRPPRLPRPRPRPKCSPRP,0.0495

row,Sequence,shrunken log2 fold change
1,RRIRFRPPRLPRPRPRPSCFPRP,-0.0773
2,RRIRWRPPRLPRPRPRPTLNPRP,0.139
3,RRIRVRPPRLPRPRPRPTCMPRP,-0.125
4,RRIRIRPPRLPRPRPRPSFQPRP,-0.329
5,RRIRPRPPRLPRPRPRPADCPRP,0.273
6,RRIRSRPPRLPRPRPRPCDAPRP,-0.122
7,RRIRVRPPRLPRPRPRPFEMPRP,-0.572
8,RRIRKRPPRLPRPRPRPFTWPRP,1.37
9,RRIRKRPPRLPRPRPRPQIQPRP,0.0528
10,RRIRPRPPRLPRPRPRPLGPPRP,0.153
11,RRIRARPPRLPRPRPRPRKLPRP,0.424
12,RRIRCRPPRLPRPRPRPCYHPRP,-0.79
13,RRIRGRPPRLPRPRPRPTKPPRP,0.0691
14,RRIRMRPPRLPRPRPRPNCRPRP,-0.135
15,RRIRRRPPRLPRPRPRPHNAPRP,2.48
16,RRIRSRPPRLPRPRPRPFMKPRP,-0.205
17,RRIRMRPPRLPRPRPRPAMMPRP,0.59
18,RRIRERPPRLPRPRPRPHMWPRP,-0.0491
19,RRIRVRPPRLPRPRPRPTWEPRP,0.00966
20,RRIRSRPPRLPRPRPRPEYYPRP,0.0495
21,RRIRARPPRLPRPRPRPYGQPRP,-0.163
22,RRIRGRPPRLPRPRPRPWLRPRP,0.306
23,RRIRGRPPRLPRPRPRPHVVPRP,0.1
24,RRIRQRPPRLPRPRPRPCVSPRP,-0.107
25,RRIRDRPPRLPRPRPRPQHSPRP,-0.312

row,Sequence,shrunken log2 fold change
1,RRIRYRPPRLPRPRPRPLFVPRP,-0.507
2,RRIRRRPPRLPRPRPRPENVPRP,-0.0722
3,RRIRWRPPRLPRPRPRPWAPPRP,0.479
4,RRIRIRPPRLPRPRPRPFFDPRP,-0.417
5,RRIRIRPPRLPRPRPRPHELPRP,-0.156
6,RRIRMRPPRLPRPRPRPAMVPRP,0.501
7,RRIRPRPPRLPRPRPRPSHVPRP,-0.544
8,RRIRGRPPRLPRPRPRPIFCPRP,0.333
9,RRIRNRPPRLPRPRPRPIKVPRP,-0.607
10,RRIRFRPPRLPRPRPRPFFAPRP,0.424
11,RRIRFRPPRLPRPRPRPKGFPRP,0.21
12,RRIRFRPPRLPRPRPRPGGMPRP,-0.0381
13,RRIRFRPPRLPRPRPRPILYPRP,-0.7
14,RRIRKRPPRLPRPRPRPNCIPRP,-0.0156
15,RRIRMRPPRLPRPRPRPDPQPRP,0.593
16,RRIRFRPPRLPRPRPRPPHTPRP,0.126
17,RRIRLRPPRLPRPRPRPLYNPRP,-0.305
18,RRIRTRPPRLPRPRPRPHQTPRP,-0.0425
19,RRIRDRPPRLPRPRPRPLREPRP,0.714
20,RRIRSRPPRLPRPRPRPPATPRP,0.725
21,RRIRMRPPRLPRPRPRPMQNPRP,0.365
22,RRIRPRPPRLPRPRPRPRRNPRP,-0.0266
23,RRIRLRPPRLPRPRPRPDDFPRP,-0.0359
24,RRIRRRPPRLPRPRPRPFNQPRP,-0.0554
25,RRIRRRPPRLPRPRPRPFEVPRP,0.0871
